The subject of series [1] is GL-261 glioma cells. As to the kind of experiment: Survival in the GL-261 orthotopic murine glioma model. It is filed as in vivo. The settings on record: for # censored mice: n=22, Day 71. Here is the method:
(§1) In an orthotopic murine glioma model, C57B6 mice were inoculated with 3 × 10^5 GL-261 glioma cells in the frontal lobe via intracranial injection with drug treatment on Day 5. Mice were randomly assigned (n=22/group) to receive a single intratumoral dose of mPCX12 at 0.5, 0.75, and 1 mg, or mrIL-12 1 µg (equivalent to mPCX12 1 mg) or empty shells or vehicle. In addition, lomustine (6 mg/kg, QDx5 i.p.) was also assessed. […] At 1 mg mPCX12, tumor IL-12 and IFNy levels were 2069±631 and 646±8 pg/mg respectively on Day 3. […] At Day 90, 41%, 45%, and 55% of the animals that received doses of 0.5, 0.75 or 1 mg mPCX12, respectively, were alive with median survival >90 days (last day of study).
In a second study, GL-261 inoculated mice (n=22 per group) received a single dose of mPCX12 at 0.5, 0.75, and 1 mg. Control treatment groups were, mrIL-12, 0.5 and 1 µg (equivalent to mPCX12 0.5 and 1 mg) or empty shells (1 mg) or vehicle control intratumoral. In addition, lomustine (6 mg/kg, QDx5 i.p.) was also assessed. Day 71 was the last day of the study. Animals were euthanized when they became moribund.
PCX12 (1 mg) >50% of mice survived to the end of the study (Day 71) and were tumor-free.

Series [2] deals with GL-261 glioma cells. More on the design: species or system C57B6 mice. As to conditions: mouse, in vivo. Here is the method: as §1
In the first study, six days post GL-261 inoculation, a single dose of mPCX12 at 0.5, 0.75, and 1 mg was administered to 4 animals per timepoint (TP). Control treatment groups were, mrIL-12 1 µg (equivalent to mPCX12 1 mg) or empty shells. In addition, lomustine (6 mg/kg, QDx5 i.p.) was also assessed. At 3- and 7-days post drug administration, animals were euthanized, serum and tumor IL-12 and IFN-γ levels were determined via ELISA.
Low levels of IL-12 and IFN-γ observed in the systemic circulation of mPCX12 and mrIL-12 groups. FIGS. 1A-D: All values expressed as Mean +/- SEM; n=4 per timepoint; ND: Not Detected.

With `O=NN(CCCl)C(=O)NC1CCCCC1` [Lomustine, lomustine, reference compound], in series [1] (Lomustine 6 mg/kg QDx5 i.p.), the “% alive at 71 Days Post Treatment” value was found to be 18% and the “# censored mice” value is on record as 4. Besides, the “Median survival” value in series [1] (Lomustine 6 mg/kg QDx5 i.p., study end Day 71) is 38 days. Further, in series [1] (lomustine 6 mg/kg QDx5 i.p., text b126 (last day of study Day 90)), the Median survival came to 20 days.

B1: rmIL-12: mouse recombinant IL-12, unencapsulated control; 1 µg equivalent to mPCX12 1 mg (protein, UniProt P43431 23-215; P43432 23-335, looked up)
Interleukin-12 subunit alpha: RVIPVSGPARCLSQSRNLLKTTDDMVKTAREKLKHYSCTAEDIDHEDITRDQTSTLKTCLPLELHKNESCLATRETSSTTRGSCLPPQKTSLMMTLCLGSIYEDLKMYQTEFQAINAALQNHNHQQIILDKGMLVAIDELMQSLNHNGETLRQKPPVGEADPYRVKMKLCILLHAFSTRVVTINRVMGYLSSA
Interleukin-12 subunit beta: MWELEKDVYVVEVDWTPDAPGETVNLTCDTPEEDDITWTSDQRHGVIGSGKTLTITVKEFLDAGQYTCHKGGETLSHSHLLLHKKENGIWSTEILKNFKNKTFLKCEAPNYSGRFTCSWLVQRNMDLKFNIKSSSSSPDSRAVTCGMASLSAEKVTLDQRDYEKYSVSCQEDVTCPTAEETLPIELALEARQQNKYENYSTSFFIRDIIKPDPPKNLQMKPLKNSQVEVSWEYPDSWSTPHSYFSLKFFVRIQRKKEKMKETEEGCNQKGAFLVEKTSTEVQCKGGNVCVQAQDRYYNSSCSKWACVPCRVRS
In the case of B1, in series [2], the “IL-12 and IFNγ in the systemic circulation” value is given as “Low levels”. In addition, the “tumor IL-12 persistence by Day 7” value in series [2] is given as “returned to baseline”. The Median survival is 37 days in series [1] (mrIL-12 1 µg intratumoral, text b126 (last day of study Day 90)); 38 days in series [1] (rmIL-12 0.5 µg intratumoral, study end Day 71); 37 days in series [1] (rmIL-12 1 µg intratumoral, study end Day 71). Moreover, the “% alive at 71 Days Post Treatment” value in series [1] (rmIL-12 0.5 µg) stood at 45%; in series [1] (rmIL-12 1 µg) it was 41%. For the same molecule, the results for the “# censored mice” value in series [1] (rmIL-12 0.5 µg) and in series [1] (rmIL-12 1 µg) were 10 and 9, respectively.

Values taken from patent US20230277628A1, “METHODS FOR PROMOTING ANTI-TUMOR IMMUNE RESPONSE IN A SUBJECT IN NEED THEREOF USING ENCAPSULATED INTERLEUKIN 12” (Spectrum Pharmaceuticals, Inc., priority 2022, published 2023).
